Data from US20230272099A1 (Chugai, published 2023).

T1: human FcgRIIa type R extracellular domain (human, UniProt P12318 34-217)
T1 construct: extracellular domain; also called hFcgRIIaR
T1 sequence (looked up): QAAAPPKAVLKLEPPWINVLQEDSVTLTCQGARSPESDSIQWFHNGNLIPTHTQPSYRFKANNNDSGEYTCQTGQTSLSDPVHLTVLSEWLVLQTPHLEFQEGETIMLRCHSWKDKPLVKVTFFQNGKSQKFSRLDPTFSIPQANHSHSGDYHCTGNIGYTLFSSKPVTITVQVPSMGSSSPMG

T2: human FcgRIIa type H extracellular domain (human, UniProt P12318 34-217)
T2 construct: extracellular domain; also called hFcgRIIaH
T2 sequence (looked up): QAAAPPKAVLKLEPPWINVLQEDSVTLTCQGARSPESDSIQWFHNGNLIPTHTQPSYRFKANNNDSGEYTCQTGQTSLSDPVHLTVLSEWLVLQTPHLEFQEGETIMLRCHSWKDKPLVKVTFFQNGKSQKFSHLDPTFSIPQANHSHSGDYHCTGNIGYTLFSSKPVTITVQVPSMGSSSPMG

T3: human FcgRIIb extracellular domain (human, UniProt P31994 43-217)
T3 construct: extracellular domain; also called hFcgRIIb
T3 sequence (looked up): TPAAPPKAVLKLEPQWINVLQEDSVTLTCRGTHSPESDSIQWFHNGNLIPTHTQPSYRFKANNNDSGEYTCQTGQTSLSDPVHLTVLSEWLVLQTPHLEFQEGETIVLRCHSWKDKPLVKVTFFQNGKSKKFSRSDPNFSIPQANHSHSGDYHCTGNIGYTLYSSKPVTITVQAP


Assays:
[1] = molecular target: T4, human FcgRIIIa V158 extracellular domain (human, UniProt P08637 17-208); assay: SPR 25C
T4 construct: extracellular domain; also called hFcgRIIIaV
T4 sequence (P08637 17-208 F176V): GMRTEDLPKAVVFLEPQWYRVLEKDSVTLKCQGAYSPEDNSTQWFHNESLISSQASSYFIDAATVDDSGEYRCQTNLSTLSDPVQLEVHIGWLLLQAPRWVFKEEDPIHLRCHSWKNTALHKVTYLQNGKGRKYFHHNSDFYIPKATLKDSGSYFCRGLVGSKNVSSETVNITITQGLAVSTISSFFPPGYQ
Method: (§1) Biacore T200 (GE Healthcare) was used to evaluate the binding activity to the respective human Fcγ receptor (hereafter referred to as FcγR). Measurement was performed at 25° C. using 50 mM phosphate, 150 mM NaCl, 0.05 w/v %-P20, pH 7.4 as buffer. About 1000 RU of antibody was captured using a sensor chip immobilized with CaptureSelect™ Human Fab-lambda Kinetics Biotin Conjugate (Thermo Fisher Scientific) as a molecule for ligand capturing. Human FcγR was diluted to 8 nM for FcγRIa and 1000 nM for other FcγR in the measurement buffer, and it was interacted to the captured antibody. The binding activity of each antibody to FcγR was assessed by calculating the binding amount of FcγR (RU) per unit amount of antibody using Biacore T200 Evaluation Software 2.0.

[2] = molecular target: T1, human FcgRIIa type R extracellular …; assay: SPR 25C
Method: as §1

[3] = molecular target: T2, human FcgRIIa type H extracellular …; assay: SPR 25C
Method: as §1

[4] = molecular target: T3, human FcgRIIb extracellular domain; assay: SPR 25C
Method: as §1

[5] = molecular target: T5, human FcgRIIIa F158 extracellular domain (human, UniProt P08637 17-208); assay: SPR 25C
T5 construct: extracellular domain; also called hFcgRIIIaF
T5 sequence (P08637 17-208): as the sequence (P08637 17-208 F176V) above, with V160F counted along it
Method: as §1

[6] = molecular target: T6, human FcgRIa extracellular domain (human, UniProt P12314 16-292); assay: SPR 25C
T6 construct: extracellular domain; also called hFcgRIa
T6 sequence (P12314 16-292): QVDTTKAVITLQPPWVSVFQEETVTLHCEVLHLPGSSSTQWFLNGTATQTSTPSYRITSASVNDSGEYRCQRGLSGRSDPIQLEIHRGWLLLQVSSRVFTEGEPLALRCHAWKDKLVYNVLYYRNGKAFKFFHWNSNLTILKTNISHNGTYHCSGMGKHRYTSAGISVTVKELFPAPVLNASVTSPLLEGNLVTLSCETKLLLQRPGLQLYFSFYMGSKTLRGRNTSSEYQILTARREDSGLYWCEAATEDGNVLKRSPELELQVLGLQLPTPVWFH
Method: as §1

human FcRn = human FcRn (human, UniProt P55899 24-290; P61769 21-119); assay: SPR 25C pH 6.0, steady state
Method: Biacore T200 (GE Healthcare) was used to assess the binding activity to human FcRn. Measurement was performed at 25° C. using 50 mM phosphate, 150 mM NaCl, 0.05 w/v %-P20, pH 6.0 as buffer. Human FcRn proteins used for this determination were prepared by the procedure described in WO2010107110. About 400 RU of antibody was captured using a sensor chip immobilized with CaptureSelect™ Human Fab-lambda Kinetics Biotin Conjugate (Thermo Fisher Scientific) as a molecule for ligand capturing, followed by the binding of human FcRn diluted in measuring buffer. The activity of the respective antibodies to bind FcRn was assessed by calculating KD(mol/L) by the steady-state model using Biacore T200 Evaluation Software 2.0.

Row | Binder | binding per 1RU antibody [1] [RU] | relative binding (A375-G1T3/B167-Lamlib=1) [1] | binding per 1RU antibody [2] [RU] | relative binding (A375-G1T3/B167-Lamlib=1) [2] | binding per 1RU antibody [3] [RU] | relative binding (A375-G1T3/B167-Lamlib=1) [3] | binding per 1RU antibody [4] [RU] | relative binding (A375-G1T3/B167-Lamlib=1) [4] | binding per 1RU antibody [5] [RU] | relative binding (A375-G1T3/B167-Lamlib=1) [5] | binding per 1RU antibody [6] [RU] | relative binding (A375-G1T3/B167-Lamlib=1) [6] | Kd (human FcRn) [µM]
1 | A375-MY201a/B167-Lamlib (antibody, human IgG1, lambda, copies: 2 + 2) heavy: EVQLVESGGGLVKPGGSLRLSCAASGFTFSTFTMNWVRQAPGKGLEWVSSISSKSTYIEYADSFKVRFTISRDNAKNSLYLQMNSLRAEDTAVYYCARYGAKNFLNWVFDYWGQGTLVTVSSASTKGPSVFPLAPSSKSTSGGTAALGCLVKDYFPEPVTVSWNSGALTSGVHTFPAVLQSSGLYSLSSVVTVPSSSLGTQTYICNVNHKPSNTKVDKRVEPKSCDKTHTCPPCPAPELLNGPSVFLFPPKPKDTLMISRTPEVTCVVVDVSDEDPEVKFNWYVDGVEVHNAKTKPREEQYNSTYRVVSVLTVLHQDWLNGKEYKCKVSNKALPKPIEKTISKAKGQPREPQVYTLPPSREEMTKNQVSLTCLVKGFYPSDIAVEWESNGQPENNYKTTPPVLDSDGSFFLYSKLTVDKSRWQQGNVFSCSVMHEALHNHYTQKSLSLSP light: QSALTQPPSASGSPGQTVTISCTGTRYDVGYYEYVSWYQQHPGKAPKLMIYETSKRLSGVPDRFSGSKSGNTASLTVSGLQAEDEADYYCSSYRYEHQVSFGGGTKLTVLGQPKAAPSVTLFPPSSEELQANKATLVCLISDFYPGAVTVAWKADSSPVKAGVETTTPSKQSNNKYAASSYLSLTPEQWKSHRSYSCQVTHEGSTVEKTVAPTECS | 0.0024 | 0.03 | 0.0338 | 0.73 | 0.0534 | 0.94 | 0.0401 | 3.66 | 0.0007 | 0.04 | 0.0396 | 0.49 | 1.19
2 | A375-TT11/B167-Lamlib (antibody, human IgG1, lambda, copies: 2 + 2) heavy: EVQLVESGGGLVKPGGSLRLSCAASGFTFSTFTMNWVRQAPGKGLEWVSSISSKSTYIEYADSFKVRFTISRDNAKNSLYLQMNSLRAEDTAVYYCARYGAKNFLNWVFDYWGQGTLVTVSSASTKGPSVFPLAPSSKSTSGGTAALGCLVKDYFPEPVTVSWNSGALTSGVHTFPAVLQSSGLYSLSSVVTVPSSSLGTQTYICNVNHKPSNTKVDKKVEPKSCDKTHTCPPCPAPEYLGGDSVFLFPPKPKDVLMISRTPEVTCVVVDVSHEDPEVKFNWYVDGVEVHNAKTKPREEQYNSTYRVVSVLPVLHQDWLNGKEYKCKVSNKALPKPIEKTISKAKGQPREPQVYTLPPSREEMTKNQVSLTCLVKGFYPSDIAVEWESNGQPENNYKTTPPVLDSDGSFFLYSKLTVDKSRWQQGNVFSCSVMHEALHNHYTQKSLSLSP light: QSALTQPPSASGSPGQTVTISCTGTRYDVGYYEYVSWYQQHPGKAPKLMIYETSKRLSGVPDRFSGSKSGNTASLTVSGLQAEDEADYYCSSYRYEHQVSFGGGTKLTVLGQPKAAPSVTLFPPSSEELQANKATLVCLISDFYPGAVTVAWKADSSPVKAGVETTTPSKQSNNKYAASSYLSLTPEQWKSHRSYSCQVTHEGSTVEKTVAPTECS | -0.001 | -0.01 | – | – | 0.002 | 0.03 | 0.0477 | 4.35 | -0.0009 | -0.04 | – | – | 1.56

The remaining binders from weak to strong by Kd (human FcRn), led by results:

Row | binding per 1RU antibody [1] [RU] | relative binding (A375-G1T3/B167-Lamlib=1) [1] | binding per 1RU antibody [2] [RU] | relative binding (A375-G1T3/B167-Lamlib=1) [2] | binding per 1RU antibody [3] [RU] | relative binding (A375-G1T3/B167-Lamlib=1) [3] | binding per 1RU antibody [4] [RU] | relative binding (A375-G1T3/B167-Lamlib=1) [4] | binding per 1RU antibody [5] [RU] | relative binding (A375-G1T3/B167-Lamlib=1) [5] | binding per 1RU antibody [6] [RU] | relative binding (A375-G1T3/B167-Lamlib=1) [6] | Kd (human FcRn) [µM] | Binder
3 | 0.07 | 1 | 0.0463 | 1 | 0.0567 | 1 | 0.011 | 1 | 0.0213 | 1 | 0.0813 | 1 | 1.27 | A375-G1T3/B167-Lamlib (antibody, human IgG1, lambda, copies: 2 + 2) heavy: not shown light: QSALTQPPSASGSPGQTVTISCTGTRYDVGYYEYVSWYQQHPGKAPKLMIYETSKRLSGVPDRFSGSKSGNTASLTVSGLQAEDEADYYCSSYRYEHQVSFGGGTKLTVLGQPKAAPSVTLFPPSSEELQANKATLVCLISDFYPGAVTVAWKADSSPVKAGVETTTPSKQSNNKYAASSYLSLTPEQWKSHRSYSCQVTHEGSTVEKTVAPTECS
4 | 0.0015 | 0.02 | 0.046 | 0.99 | 0.0465 | 0.82 | 0.0482 | 4.4 | 0.0009 | 0.04 | 0.002 | 0.02 | 1.27 | A375-MY518/B167-Lamlib (antibody, human IgG1, lambda, copies: 2 + 2) heavy: EVQLVESGGGLVKPGGSLRLSCAASGFTFSTFTMNWVRQAPGKGLEWVSSISSKSTYIEYADSFKVRFTISRDNAKNSLYLQMNSLRAEDTAVYYCARYGAKNFLNWVFDYWGQGTLVTVSSASTKGPSVFPLAPSSKSTSGGTAALGCLVKDYFPEPVTVSWNSGALTSGVHTFPAVLQSSGLYSLSSVVTVPSSSLGTQTYICNVNHKPSNTKVDKKVEPKSCDKTHTCPPCPAPELWNGPSVFLFPPKPKDTLMISRTPEVTCVVVDVSDEDPEVKFNWYVDGVEVHNAKTKPREELYNSTYRVVSVLTVLHQDWLNGKEYKCKVSNTALPKPIEKTISKAKGQPREPQVYTLPPSREEMTKNQVSLTCLVKGFYPSDIAVEWESNGQPENNYKTTPPVLDSDGSFFLYSKLTVDKSRWQQGNVFSCSVMHEALHNHYTQKSLSLSP light: QSALTQPPSASGSPGQTVTISCTGTRYDVGYYEYVSWYQQHPGKAPKLMIYETSKRLSGVPDRFSGSKSGNTASLTVSGLQAEDEADYYCSSYRYEHQVSFGGGTKLTVLGQPKAAPSVTLFPPSSEELQANKATLVCLISDFYPGAVTVAWKADSSPVKAGVETTTPSKQSNNKYAASSYLSLTPEQWKSHRSYSCQVTHEGSTVEKTVAPTECS
5 | 0.0011 | 0.02 | 0.0335 | 0.72 | 0.0328 | 0.58 | 0.0313 | 2.85 | 0.0007 | 0.03 | 0.004 | 0.05 | 1.18 | A375-MY201aPh/B167-Lamlib (antibody, human IgG1, lambda, copies: 2 + 2) heavy: EVQLVESGGGLVKPGGSLRLSCAASGFTFSTFTMNWVRQAPGKGLEWVSSISSKSTYIEYADSFKVRFTISRDNAKNSLYLQMNSLRAEDTAVYYCARYGAKNFLNWVFDYWGQGTLVTVSSASTKGPSVFPLAPSSKSTSGGTAALGCLVKDYFPEPVTVSWNSGALTSGVHTFPAVLQSSGLYSLSSVVTVPSSSLGTQTYICNVNHKPSNTKVDKRVEPKSCDKTHTCPPCPAPELWNGPSVFLFPPKPKDTLMISRTPEVTCVVVDVSDEDPEVKFNWYVDGVEVHNAKTKPREEQYNSTYRVVSVLTVLHQDWLNGKEYKCKVSNKALPKPIEKTISKAKGQPREPQVYTLPPSREEMTKNQVSLTCLVKGFYPSDIAVEWESNGQPENNYKTTPPVLDSDGSFFLYSKLTVDKSRWQQGNVFSCSVMHEALHNHYTQKSLSLSP light: QSALTQPPSASGSPGQTVTISCTGTRYDVGYYEYVSWYQQHPGKAPKLMIYETSKRLSGVPDRFSGSKSGNTASLTVSGLQAEDEADYYCSSYRYEHQVSFGGGTKLTVLGQPKAAPSVTLFPPSSEELQANKATLVCLISDFYPGAVTVAWKADSSPVKAGVETTTPSKQSNNKYAASSYLSLTPEQWKSHRSYSCQVTHEGSTVEKTVAPTECS
